The record followed here is PMC4357707 (Nucleic Acids Research, 2015).

Positions count from the first letter of the chain named.

Test in all cases: EMSA
On the technique in general: A gel shift assay detects complexes by their altered migration in electrophoresis.

In data set [1] the target is T1, HEN1-KK69-70AA (Arabidopsis thaliana, UniProt Q9C5Q8 1-942, K69A;K70A).
T1 sequence: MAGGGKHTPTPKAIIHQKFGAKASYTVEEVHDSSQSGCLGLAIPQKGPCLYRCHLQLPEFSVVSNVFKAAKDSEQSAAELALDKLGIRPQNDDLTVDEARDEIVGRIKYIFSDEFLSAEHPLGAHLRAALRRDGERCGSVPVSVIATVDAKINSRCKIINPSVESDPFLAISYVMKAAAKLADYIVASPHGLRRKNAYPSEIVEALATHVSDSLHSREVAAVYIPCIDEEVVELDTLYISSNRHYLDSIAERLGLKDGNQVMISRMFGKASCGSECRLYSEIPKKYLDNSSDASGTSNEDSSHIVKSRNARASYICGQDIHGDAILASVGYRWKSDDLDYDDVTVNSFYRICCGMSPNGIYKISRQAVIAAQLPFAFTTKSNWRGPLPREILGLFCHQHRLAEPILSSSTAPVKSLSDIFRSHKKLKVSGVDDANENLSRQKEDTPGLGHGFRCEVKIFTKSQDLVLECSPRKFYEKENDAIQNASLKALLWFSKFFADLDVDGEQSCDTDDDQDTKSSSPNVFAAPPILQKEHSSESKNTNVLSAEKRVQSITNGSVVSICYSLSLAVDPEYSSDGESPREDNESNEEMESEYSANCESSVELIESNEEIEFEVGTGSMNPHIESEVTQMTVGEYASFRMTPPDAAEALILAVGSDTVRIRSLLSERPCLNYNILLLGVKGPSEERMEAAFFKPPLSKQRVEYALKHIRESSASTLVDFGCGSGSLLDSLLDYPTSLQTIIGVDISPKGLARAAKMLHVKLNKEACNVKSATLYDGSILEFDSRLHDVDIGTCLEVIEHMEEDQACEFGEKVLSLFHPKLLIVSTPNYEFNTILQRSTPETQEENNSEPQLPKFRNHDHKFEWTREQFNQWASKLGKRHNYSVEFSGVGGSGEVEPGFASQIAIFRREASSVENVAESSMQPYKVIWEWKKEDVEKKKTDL

Data set [2] has as its target T2, HEN1-KKKK68-71SAAS (Arabidopsis thaliana, UniProt Q9C5Q8 1-942, K68S;K69A;K70A;K71S).
T2 sequence: T1 sequence with K68S, K71S

Data set [3] deals with T3, HYL1 (Arabidopsis thaliana, UniProt O04492 1-419).
T3 sequence: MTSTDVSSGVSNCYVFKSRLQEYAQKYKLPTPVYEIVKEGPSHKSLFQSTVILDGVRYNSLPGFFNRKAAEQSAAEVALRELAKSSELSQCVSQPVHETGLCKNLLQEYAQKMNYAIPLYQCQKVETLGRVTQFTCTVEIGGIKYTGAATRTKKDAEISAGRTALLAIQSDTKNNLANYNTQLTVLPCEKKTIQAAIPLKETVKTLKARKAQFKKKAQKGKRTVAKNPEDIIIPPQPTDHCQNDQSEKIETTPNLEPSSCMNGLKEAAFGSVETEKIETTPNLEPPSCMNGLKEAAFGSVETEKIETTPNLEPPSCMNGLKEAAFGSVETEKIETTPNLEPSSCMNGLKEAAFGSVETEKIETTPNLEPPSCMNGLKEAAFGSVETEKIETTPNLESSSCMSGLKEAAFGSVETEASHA

B1: miR173/miR173* (dsRNA)
RNA 1: UUCGCUUGCAGAGAGAAAUCAC
RNA 2: GAUUCUCUGUGUAAGCGAAAG
For the molecule B1, the binding result in data set [1] is listed as “no binding”; in data set [2], “no binding”; in data set [3], “binds”.
